The values below come from IntAct's records for PubMed 31515488.

The labels stand for the following.
B1: Nucleoporin p58/p45 (Homo sapiens), Q9BVL2 (parent)
chain: MSTGFSFGSGTLGSTTVAAGGTSTGGVFSFGTGASSNPSVGLNFGNLGSTSTPATTSAPSSGFGTGLFGSKPATGFTLGGTNTGIATTITTGLTLGTPATTSAATTGFSLGFNKPAASATPFALPITSTSASGLTLSSALTSTPAASTGFTLNNLGGTTATTTTASTGLSLGGALAGLGGSLFQSTNTGTSGLGQNALGLTLGTTAATSTAGNEGLGGIDFSSSSDKKSDKTGTRPEDSKALKDENLPPVICQDVENLQKFVKEQKQVQEEISRMSSKAMLKVQEDIKALKQLLSLAANGIQRNTLNIDKLKIETAQELKNAEIALRTQKTPPGLQHEYAAPADYFRILVQQFEVQLQQYRQQIEELENHLATQANNSHITPQDLSMAMQKIYQTFVALAAQLQSIHENVKVLKEQYLGYRKMFLGDAVDVFETRRAEAKKWQNTPRVTTGPTPFSTMPNAAAVAMAATLTQQQQPATGPQPSLGVSFGTPFGSGIGTGLQSSGLGSSNLGGFGTSSGFGCSTTGASTFGFGTTNKPSGSLSAGFGSSSTSGFNFSNPGITASAGLTFGVSNPASAGFGTGGQLLQLKKPPAGNKRGKR
B2: Vacuolar protein sorting-associated protein 37B (Homo sapiens), Q9H9H4 (parent)
chain: MAGAGSEARFAGLSLVQLNELLEDEGQLTEMVQKMEETQNVQLNKEMTLASNRSLAEGNLLYQPQLDTLKARLTQKYQELQVLFEAYQIKKTKLDRQSSSASLETLLALLQAEGAKIEEDTENMAEKFLDGELPLDSFIDVYQSKRKLAHMRRVKIEKLQEMVLKGQRLPQALAPLPPRLPELAPTAPLPYPAPEASGPPAVAPRRIPPPPPPVPAGRLATPFTAAMSSGQAVPYPGLQCPPLPPRVGLPTQQGFSSQFVSPYPPPLPQRPPPRLPPHQPGFILQ
B3: Low-density lipoprotein receptor class A domain-containing protein 1 (Homo sapiens), Q5T700 (parent)
chain: MNKVFPQGENGYTAAESKAHPGGEAGGGHLCCSRRGACLSASLLLLLATVAALIALVTILGLPSCTPGAQACITLTNRTGFLCHDQRSCIPASGVCDGVRTCTHGEDEDESLCRDVPQSLPHFLVAHCGDPASWIYSDQKCDGTNNCGDCSDELSPVTVCPPCGPGWWRCPSTFFKYCDCIPRHLCRDHVQHCSDWSDEYACPGP
B4: Tektin-3 (Homo sapiens), Q9BXF9 (parent)
chain: MERVGCTLTTTYAHPRPTPTNFLPAISTMASSYRDRFPHSNLTHSLSLPWRPSTYYKVASNSPSVAPYCTRSQRVSENTMLPFVSNRTTFFTRYTPDDWYRSNLTNYQESNTSRHNSEKLRVDTSRLIQDKYQQTRKTQADTTQNLGERVNDIGFWKSEIIHELDEMIGETNALTDVKKRLERALMETEAPLQVARECLFHREKRMGIDLVHDEVEAQLLTEVDTILCCQERMKLHLDKAIAQLAANRASQHELEKDLSDKQTAYRIDDKCHHLRNTSDGVGYFRGVERVDATVSVPESWAKFTDDNILRSQSERAASAKLRDDIENLLVVTANEMWNQFNKVNLSFTNRIAETADAKNKIQTHLAKTLQEIFQTEMTIESIKKAIKDKTAFLKVAQTRLDERTRRPNIELCRDMAQLRLVNEVHEVDDTIQTLQQRLRDAEDTLQSLVHIKATLEYDLAVKANSLYIDQEKCMSMRKSYPNTLRLVGFC
partner: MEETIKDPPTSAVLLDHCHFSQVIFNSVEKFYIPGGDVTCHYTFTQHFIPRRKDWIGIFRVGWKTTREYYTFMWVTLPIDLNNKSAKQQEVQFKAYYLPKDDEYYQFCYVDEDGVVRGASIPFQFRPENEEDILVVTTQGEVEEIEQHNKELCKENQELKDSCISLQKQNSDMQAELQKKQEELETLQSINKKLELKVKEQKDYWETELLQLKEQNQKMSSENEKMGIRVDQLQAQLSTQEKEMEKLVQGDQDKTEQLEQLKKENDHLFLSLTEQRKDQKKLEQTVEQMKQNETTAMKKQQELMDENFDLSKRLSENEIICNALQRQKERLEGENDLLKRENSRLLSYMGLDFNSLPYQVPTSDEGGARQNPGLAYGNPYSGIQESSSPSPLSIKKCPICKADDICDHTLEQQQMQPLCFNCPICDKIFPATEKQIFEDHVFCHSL
B5: Zinc finger and BTB domain-containing protein 9 (Homo sapiens), Q96C00 (parent)
chain: METPTPLPPVPASPTCNPAPRTIQIEFPQHSSSLLESLNRHRLEGKFCDVSLLVQGRELRAHKAVLAAASPYFHDKLLLGDAPRLTLPSVIEADAFEGLLQLIYSGRLRLPLDALPAHLLVASGLQMWQVVDQCSEILRELETSGGGISARGGNSYHALLSTTSSTGGWCIRSSPFQTPVQSSASTESPASTESPVGGEGSELGEVLQIQVEEEEEEEEDDDDEDQGSATLSQTPQPQRVSGVFPRPHGPHPLPMTATPRKLPEGESAPLELPAPPALPPKIFYIKQEPFEPKEEISGSGTQPGGAKEETKVFSGGDTEGNGELGFLLPSGPGPTSGGGGPSWKPVDLHGNEILSGGGGPGGAGQAVHGPVKLGGTPPADGKRFGCLCGKRFAVKPKRDRHIMLTFSLRPFGCGICNKRFKLKHHLTEHMKTHAGALHACPHCGRRFRVHACFLRHRDLCKGQGWATAHWTYK
B6: UPF0488 protein C8orf33 (Homo sapiens), Q9H7E9 (parent)
chain: MAALGHLAGEAAAAPGPGTPCASRGARLPGPVSSARNPSTVCLCPEQPTCSNADSRAHPLGDEGGTASKKQKNKKKTRNRASVANGGEKASEKLAPEEVPLSAEAQAQQLAQELAWCVEQLELGLKRQKPTPKQKEQAIGAIRTLRSKRTPLPRKRQLMHSLFGDYRAQMEAEWREALRALRAAAYSAQVQPVDGATRKKSQRVCRPRSIWRAKATLDMPDEEFRFNFF
B7: Bcl-2-interacting killer (Homo sapiens), Q13323 (parent)
chain: MSEVRPLSRDILMETLLYEQLLEPPTMEVLGMTDSEEDLDPMEDFDSLECMEGSDALALRLACIGDEMDVSLRAPRLAQLSEVAMHSLGLAFIYDQTEDIRDVLRSFMDGFTTLKENIMRFWRSPNPGSWVSCEQVLLALLLLLALLLPLLSGGLHLLLK
partner: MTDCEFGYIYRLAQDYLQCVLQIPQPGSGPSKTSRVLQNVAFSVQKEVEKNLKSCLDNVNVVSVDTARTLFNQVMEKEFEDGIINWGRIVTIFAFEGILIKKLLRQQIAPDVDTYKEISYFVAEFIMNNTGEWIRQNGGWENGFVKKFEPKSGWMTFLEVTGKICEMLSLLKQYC
B8: PDZ and LIM domain protein 1 (Homo sapiens), O00151 (parent)
chain: MTTQQIDLQGPGPWGFRLVGGKDFEQPLAISRVTPGSKAALANLCIGDVITAIDGENTSNMTHLEAQNRIKGCTDNLTLTVARSEHKVWSPLVTEEGKRHPYKMNLASEPQEVLHIGSAHNRSAMPFTASPASSTTARVITNQYNNPAGLYSSENISNFNNALESKTAASGVEANSRPLDHAQPPSSLVIDKESEVYKMLQEKQELNEPPKQSTSFLVLQEILESEEKGDPNKPSGFRSVKAPVTKVAASIGNAQKLPMCDKCGTGIVGVFVKLRDRHRHPECYVCTDCGTNLKQKGHFFVEDQIYCEKHARERVTPPEGYEVVTVFPK
B9: E3 ubiquitin-protein ligase MYLIP (Homo sapiens), Q8WY64 (parent)
chain: MLCYVTRPDAVLMEVEVEAKANGEDCLNQVCRRLGIIEVDYFGLQFTGSKGESLWLNLRNRISQQMDGLAPYRLKLRVKFFVEPHLILQEQTRHIFFLHIKEALLAGHLLCSPEQAVELSALLAQTKFGDYNQNTAKYNYEELCAKELSSATLNSIVAKHKELEGTSQASAEYQVLQIVSAMENYGIEWHSVRDSEGQKLLIGVGPEGISICKDDFSPINRIAYPVVQMATQSGKNVYLTVTKESGNSIVLLFKMISTRAASGLYRAITETHAFYRCDTVTSAVMMQYSRDLKGHLASLFLNENINLGKKYVFDIKRTSKEVYDHARRALYNAGVVDLVSRNNQSPSHSPLKSSESSMNCSSCEGLSCQQTRVLQEKLRKLKEAMLCMVCCEEEINSTFCPCGHTVCCESCAAQLQSCPVCRSRVEHVQHVYLPTHTSLLNLTVI
partner: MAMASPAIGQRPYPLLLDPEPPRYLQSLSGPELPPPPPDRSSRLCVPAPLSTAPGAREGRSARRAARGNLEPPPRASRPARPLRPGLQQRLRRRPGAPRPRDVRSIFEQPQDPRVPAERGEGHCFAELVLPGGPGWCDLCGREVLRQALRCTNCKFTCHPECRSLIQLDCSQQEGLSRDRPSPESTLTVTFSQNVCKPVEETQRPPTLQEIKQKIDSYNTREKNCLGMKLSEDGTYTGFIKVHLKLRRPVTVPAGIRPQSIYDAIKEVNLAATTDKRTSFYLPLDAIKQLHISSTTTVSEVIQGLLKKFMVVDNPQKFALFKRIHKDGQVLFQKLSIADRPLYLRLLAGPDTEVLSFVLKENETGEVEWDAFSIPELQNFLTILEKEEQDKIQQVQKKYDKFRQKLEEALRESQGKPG

Variants of B1 are the subject of one assay. The following applies: with nup62_human NUP62, P37198.
As to A34T, the “effect of a mutation on the interaction” value was “with no effect”.

The variants in a further assay derive from B1. The note with it: with traf1_human TRAF1, Q13077.
For A34T, the “effect of a mutation on the interaction” value is listed as “with no effect”.

In a further assay the parent is B2. The following applies: with vps28_human VPS28, Q9UK41.
With M151I, the “effect of a mutation on the interaction” value is “with no effect”.

In the next assay the parent is B3. The note with it: with mall_human MALL.
S42F: the “effect of a mutation on the interaction” value is listed as “with no effect”.

In another assay the parent is B3. The note with it: with olfm4_human OLFM4, Q6UX06.
Consider S42F, for which the “effect of a mutation on the interaction” value was “with no effect”.

Variants of B3 are the subject of another assay. The following applies: with tm190_human TMEM190, Q8WZ59.
On to E108K, for which the “effect of a mutation on the interaction” value is listed as “with no effect”.

In the next assay the parent is B3. The note with it: with tm218_human TMEM218, A2RU14.
For E108K, the “effect of a mutation on the interaction” value was “with no effect”.

The variants in another assay derive from B3. The following applies: with bni3l_human BNIP3L.
On to E108K, for which the “effect of a mutation on the interaction” value was “with no effect”.
Same read-out and setting: the value for G105S was “with no effect”.

The next assay covers variants of B3. The following applies: with tm147_human TMEM147, Q9BVK8.
Regarding E108K, the “effect of a mutation on the interaction” value is recorded as “with no effect”.
G105S: the “effect of a mutation on the interaction” value is given as “with no effect”.

Variants of B3 are the subject of the next assay. The following applies: with mal_human MAL.
As for E108K, the “effect of a mutation on the interaction” value is “with no effect”.
With G105S, the “effect of a mutation on the interaction” value is on record as “with no effect”.

The variants in another assay derive from B4. The following applies: with caco2_human CALCOCO2, Q13137.
With G282A, the “effect of a mutation on the interaction” value is reported as “with no effect”.
Turning to R196Q, the “effect of a mutation on the interaction” value is recorded as “with no effect”.
On the same count and under the same terms, the result for Q129K reads “with no effect”.

The next assay covers variants of B5. The following applies: with pin4_human PIN4, Q9Y237.
Consider S173C, for which the “effect of a mutation on the interaction” value is “with no effect”.

Variants of B5 are the subject of a further assay. The following applies: with if4e2_human EIF4E2, O60573.
As to S173C, the “effect of a mutation on the interaction” value is “with no effect”.

The variants in the next assay derive from B5. The note with it: with mo4l1_human MORF4L1, Q9UBU8.
Consider S173C, for which the “effect of a mutation on the interaction” value is given as “with no effect”.

In the next assay the parent is B6. The following applies: with ldoc1_human LDOC1, O95751.
As for G25R, the “effect of a mutation on the interaction” value is recorded as “with no effect”.

The variants in the next assay derive from B6. The following applies: with cep70_human CEP70, Q8NHQ1.
Take G25R: the “effect of a mutation on the interaction” value is reported as “with no effect”.

In the next assay the parent is B7. The note with it: with BCL2A1, Q16548.
As for D69E, the “effect of a mutation on the interaction” value was “with no effect”.

A further assay covers variants of B8. The note with it: with gfap_human GFAP.
As to N175S, the “effect of a mutation on the interaction” value is “with no effect”.

Variants of B9 are the subject of a further assay. The note with it: with rasf5_human RASSF5, Q8WWW0.
Turning to N342S, the “effect of a mutation on the interaction” value is listed as “with no effect”.
